Measured values from patent publication US20230357391A1 (EXELIXIS, published 2023).
Changes are numbered by the printed parent chain. “And” between values parts separate entries of the source, which are not always exact repeats. Identical values can stand only once. One block for each binder: values may come before it.

Columns and labels:
[1] = target: T1, human CD47 on cells (human, UniProt Q08722 19-323); test: cell-based or functional assay
[2] = target: T1, human CD47 on cells; test: flow cytometry, MDA-MB-231 cells
Method: Cells were harvested at 70-90% confluence on the day of the assay. Cells were collected by centrifugation at 200xg for 5 minutes and media was removed. Cells were resuspended at 2×10⁶ cells per mL in cold PBS. An 8-point antibody dilution series (2x concentration) was prepared in PBS to cover the expected binding affinities of the antibodies being tested. […] 50 µL per well of cell suspension was added. Plates were placed at 4° C. for 45-60 minutes.
Cells were collected by centrifugation at 400xg for 7 minutes and secondary antibody was removed. Cells were resuspended in 50 µL per well of PBS and analyzed by flow cytometry. Binding curves were calculated using the mean fluorescence intensity (MFI) of the FITC fluorescence signal on the cells.

[3] = target: T2, mouse CD47 (mouse, UniProt Q61735-2 19-158, limits assumed, biotinylated); test: BLI (Octet), mouse CD47 on sensor; X = no mouse cross-reactivity
T2 construct: also called mCD47
T2 sequence (looked up): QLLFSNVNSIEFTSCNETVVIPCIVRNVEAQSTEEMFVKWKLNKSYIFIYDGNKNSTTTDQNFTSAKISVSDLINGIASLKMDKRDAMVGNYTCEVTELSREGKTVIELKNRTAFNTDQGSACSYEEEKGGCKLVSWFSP
From the text: Mouse CD47 was obtained from Acro Biosystems (Acro Cat. No. CD7-M82E4, Acro Cat. No. CD7-M522b) and biotinylated using standard protocols. The free biotin was removed by extensive dialysis against PBS. Biotinylated antigen (CD47) was immobilized on a streptavidin sensor. The cross-reactive antibodies were identified by the association to mouse CD47 using Octet.

IC50 [1]: 5.38 nM
EC50 [2]: > 1000 nM
B1: Antibody C40 (antibody, human IgG1, kappa, V domains shown)
VH: EVQLVESGGGLVQPGGSLRLSCAASGFTFSYYYIHWVRQAPGKGLEWVAWIDPYGHSTTYADSVKGRFTISADTSKNTAYLQMNSLRAEDTAVYYCARGGRGAMDYWGQGTLVTAST
VL: DIQMTQSPSSLSASVGDRVTITCRASQSVSSAVAWYQQKPGKAPKLLIYSASSLYSGVPSRFSGSRSGTDFTLTISSLQPEDFATYYCQQRYSSLLTFGQGTKVEIKR
notes: Full length IgG

IC50 [1]: 140 nM
EC50 [2]: 200 to 1000 nM and 550 nM
binding result [3]: no binding
B2: Antibody C59 (antibody, human IgG1, kappa, V domains shown)
VH: B1 VH with S30T, Y31S, W50Y, P53S, Y54K, G55H, H56G, S57T, T59Q, G102S
VL: B1 VL with Y92T, S93T
notes: Full length IgG
